From article PMC8038143, “Conformation-Specific Inhibitory Anti-MMP-7 Monoclonal Antibody Sensitizes Pancreatic Ductal Adenocarcinoma Cells to Chemotherapeutic Cell Kill” (Cancers, 2021) come the findings set out here.

For assay [1], the target named is T1, recombinant catalytic human MMP-7 (active enzyme) (Homo sapiens, UniProt P09237). Description: cell-based or functional assay.
In assay [2] the target is T1, recombinant catalytic human MMP-7 …. Description: ELISA; 96-well plate coated with MMPs at 5 mg/mL; GSM-192 incubated at 25 °C for 1 h; detected with goat anti-Fab/anti-mouse antibody and peroxidase-conjugated anti-goat antibody; four-parametric sigmoidal fit. Particulars: both partners purified. (ELISA stands for enzyme-linked immunosorbent assay.)

T1 sequence (P09237 95-258): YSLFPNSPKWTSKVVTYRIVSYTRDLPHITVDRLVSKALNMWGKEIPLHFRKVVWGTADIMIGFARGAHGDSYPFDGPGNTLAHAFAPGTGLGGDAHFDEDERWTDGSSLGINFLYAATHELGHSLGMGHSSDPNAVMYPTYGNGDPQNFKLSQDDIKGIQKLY

B1: GSM-192 anti-MMP-7 monoclonal antibody (antibody, V domains shown)
VH: EVQLQQSGPELVKPGASVKIPCKASGYTFTDYNMDWMKQSHGKSLEWIGHINPNNGGTFYNQKFKDKATFIVDKSSNTAYMELRSLTSEDTAVYFCARGGGLRRGPFAYWGQGTLVTVS
VL: DIVTQSPASLAVSLGQRATISCRASESFDSYGNTFVHWYQQKPGQPPKLLIYLVSNLESGVPAGFRGRGSRTDFTLTIDPVEADDAATYYCQQNNEDPYTFGGGTKLEIK
notes: Whole mouse monoclonal antibody; source: mouse hybridoma (BALB/c B cells fused with NSO myeloma cells), supernatant, purified (protein A column)
For orientation: EC50 means the concentration giving half of the maximal effect. On to B1, for which, in assay [1], the “death of AsPC-1 PDAC cells treated with GSM-192, IC50” value turned out to be 2300 nM and the “death of CFPAC-1 PDAC cells treated with GSM-192, IC50” value is 4300 nM. Moreover, the EC50 in assay [2] came out at 43 ± 1 nM.
